Target: full-length A82F variant of CYP102A1 with an N-terminal His6 tag (Bacillus megaterium) (UniProt P14779)
Experiment: SEC-MALS

- stoichiometry N: 2
Substance: full-length A82F variant of CYP102A1 with an N-terminal His6 tag (from UniProt P14779 1-1049) (enzyme)
